Laboratory results: patent US20120177664A1 (IMMUNAS PHARMA, published 2012)

Target: T1, A beta oligomer (synthetic A beta1-40, HCl form, 0.1 mg/ml in PBS, incubated at 37 degrees C for one hour) (UniProt P05067 672-711)
T1 construct: domain: A beta1-40; non-fibrous multimer of the peptide; also called A beta 1-40 oligomer
Experiment: SPR (Biacore 3000)
Protocol: The analysis was carried out by Surface Plasmon Resonance (SPR) using Biacore 3000 (GE Healthcare Sciences).

| Binder | Kd | koff | kon |
| --- | --- | --- | --- |
| IR-097 antibody (antibody, mouse IgG2b, V domains shown, mouse IgG2b) VH: not shown VL: DVLMTQTPLSLPVSLGDQASISCRSSQSIVHSNGNTYLEWYLQKPGQSPKLLIYKVSNRFSGVPDRFSGSGSGTDFTLKISRVEAEDLGVYYCFQGSHVPLTFGAGTKLELK | 15.7 nM | 0.00303 s⁻¹ | 193000 M⁻¹ s⁻¹ |
| IR-107 antibody (antibody, mouse IgG2b, V domains shown, mouse IgG2b) VH: DVQLVESGGGLVQPGGSRKLSCAASGFTFSSFGMHWVRQAPEKGLEWVAYISSGSSTIYYADTVKGRFTISRDNPKNTLFLQMTSLRSEDTAMYYCARYGYAMDYWGQGTSVTVSS VL: DVLMTQTPLSLPVSLGDQASISCRSSQSIVHSNGNTYLEWYLQKPGQSPKLLIYKVSNRFSGVPDRFSGSGSGTDFTLKISRVEAEDLGVYYCFQGSHVPPTFGGGTKLEIK | 339 nM | 0.1 s⁻¹ | 295000 M⁻¹ s⁻¹ |
| IR-098 antibody (antibody, mouse IgG2b, V domains shown, mouse IgG2b) VH: not shown VL: DVLMTQTPLSLPVSLGDQASISCRSSQSIVHSNGNTYLEWYLQKPGQSPKLLIYKVSNRFSGVPDRFSGSGSGTDFTLKISRVEAEDLGVYYCFQGSHVPLTFGAGTKLELK | 36.3 nM | 0.0138 s⁻¹ | 380000 M⁻¹ s⁻¹ |
| IR-118 antibody (antibody, mouse IgG2a, V domains shown, mouse IgG2a) VH: QVQLKESGPGLVAPSQSLSITCTISGFSLTSYGVHWVRQPPGKGLEWLVVIWSDGSTTYNSALKSRLSISKDNSKSQLFLKMNSLQTDDTAMYYCARHSYRYGLMDYWGQGTSVTVSS VL: DVVMTQTPLSLPVSLGDQASISCRSSQSLVHSNGNTYLHWYLQKPGQSPKLLIYKVSNRFSGVPDRFSGSGSGTDFTLKISRVEAEDLGVYFCSQSTHVPLTFGAGTKLELK | 27.5 nM | 0.00153 s⁻¹ | 55700 M⁻¹ s⁻¹ |
| IR-150 antibody (antibody, mouse IgG2b, V domains shown, mouse IgG2b) VH: not shown VL: DVVMTQTPLSLPVSLGDQASISCRSSQSLVHSNGNTYLHWYLQKPGQSPKLLIYKVSNRFSGVPDRFSGSGSGTDFTLKISRVEAEDLGVYFCSQSTHVPLTFGAGTKLELK | 517 nM | 0.124 s⁻¹ | 240000 M⁻¹ s⁻¹ |
| IR-132 antibody (antibody, mouse IgG2b, V domains shown, mouse IgG2b) VH: DVQLVESGGGLVQPGGSRKLSCAASGFTFSSFGMHWVRQAPEKGLEWVAYISSGSSTIYYADTVKGRFTISRDNPKNTLFLQMTSLRSEDTAMYYCARDGNYVGWFAYWGQGTLVTVSA VL: DVVMTQTPLSLPVSLGDQASISCRSSQSLVHSNGNTYLHWYLQKPGQSPKLLIYKVSNRFSGVPDRFSGSGSGTDFTLKISRVEAEDLGVYFCSQSTHVPLTFGAGTKLELK | 22.1 nM | 0.00517 s⁻¹ | 234000 M⁻¹ s⁻¹ |
| IR-155 antibody (antibody, V domains shown, mouse IgG2a) VH: DVQLVESGGGLVQPGGSRKLSCAASGFTFSSFGMHWVRQAPEKGLEWVAYISSGSSTIYYADTVKGRFTISRDNPKNTLFLQMTSLRSEDTAMYYCARLDGYRGDYWGQGTTLTVSS VL: DVVMTQTPLSLPVSLGDQASISCRSSQSLVHSNGNTYLHWYLQKPGQSPKLLIYKVSNRFSGVPDRFSGSGSGTDFTLKISRVEAEDLGVYFCSQSTHVPLTFGSGTKLEIK | 1050 nM | 0.37 s⁻¹ | 351000 M⁻¹ s⁻¹ |
| IR-135 antibody (antibody, V domains shown, mouse IgG2a) VH: QVQLQQSGAELAKPGASVKMSCKASGYTFTSYWMHWVKQRPGQGLEWIGYINPSTGYTEYNQKFKDKATLTADKSSSTAYMQLSSLTSEDSAVYYCDYYGSSYGYFDVWGAGTTVTVSS VL: DVVMTQTPLSLPVSLGDQASISCRSSQSLVHSNGNTYLHWYLQKPGQSPKLLIYKVSNRFSGVPDRFSGSGSGTDFTLKISRVEAEDLGVFFCSQSTHVPLTFGAGTKLELK | 1290 nM | 0.116 s⁻¹ | 89900 M⁻¹ s⁻¹ |
| IR-139 antibody (antibody, mouse IgG2b, V domains shown, mouse IgG2b) VH: DVQLVESGGGLVQPGGSRKLSCAASGFTFSSFGMHWVRQAPEKGLEWVAYISSGSSTIYYADTVKGRFTISRDNPKNTLFLQMTSLRSEDTAMYYCARDEGYFDYWGQGTTLTVSS VL: DVVMTQTPLSLPVSLGDQASISCRSSQSLVHSNGNTYLHWYLQKPGQSPKLLIYKVSNRFSGVPDRFSGSGSGTDFTLKISRVEAEDLGVYFCSQSTHVPLTFGAGTKLELK | 50.6 nM | 0.00165 s⁻¹ | 32600 M⁻¹ s⁻¹ |
| IR-117 antibody (antibody, mouse IgG2b, V domains shown, mouse IgG2b) VH: not shown VL: DVVMTQTPLSLPVSLGDQASISCRSSQSLVHSNGNTYLHWYLQKPGQSPKLLIYKVSNRFSGVPDRFSGSGSGTDFTLKISRVEAEDLGVYFCSQSTHVPLTFGAGTKLELK | 921 nM | 0.0668 s⁻¹ | 72500 M⁻¹ s⁻¹ |
| IR-154 antibody (antibody, V domains shown, mouse IgG2a) VH: DVQLVESGGGLVQPGGSRKLSCAASGFSFSSFGMHWVRQAPEKGLEWVAYISSGRSTIYYADTVKGRFTISRDNPKNTLFLQMTSLRSEDTAMYYCARLRGNLDYAMDYWGQGTSVTVSS VL: DVVMTQTPLSLPVSLGDQASISCRSSQSLVHSNGNTYLHWYLQKPGQSPKLLIYKVSNRFSGVPDRFSGSGSGTDFTLKISRVEAEDLGVYFCSQSTHVPFTFGSGTKLEIK | 1050 nM | 0.41 s⁻¹ | 389000 M⁻¹ s⁻¹ |
| IR-112 antibody (antibody, mouse IgG2a, V domains shown, mouse IgG2a) VH: QVTLKESGPGILKPSQTLSLTCSFSGFSLSTSGMGVGWIRQPSGKGLEWLAHIWWDDDKYYNPSLKSQLTISKDTSRNQVFLKITSVDTADTATYYCARRSMITTNDYFDYWGQGTTLTVSS VL: DVLMTQTPLSLPVSLGDQASISCRSSQSIVHSNGNTYLEWYLQKPGQSPKLLIYKVSNRFSGVPDRFSGSGSGTDFTLKISRVEAEDLGVYYCFQGSHVPPTFGGGTKLEIK | 41.1 nM | 0.00376 s⁻¹ | 91400 M⁻¹ s⁻¹ |
| IR-108 antibody (antibody, mouse IgG2a, V domains shown, mouse IgG2a) VH: QVTLKESGPGILKPSQTLSLTCSFSGFSLSTSGMGVGWIRQPSGKGLEWLAHIWWDDDKYYNPSLKSQLTISKDTSRNQVFLKITSVDTADTATYYCARRGLRRGDYFDYWGQGTTLTVSS VL: DVLMTQTPLSLPVSLGDQASISCRSSQSIVHSNGNTYLEWYLQKPGQSPKLLIYKVSNRFSGVPDRFSGSGSGTDFTLKISRVEAEDLGVYYCFQGSHVPLTFGAGTKLELK | 11.8 nM | 0.00296 s⁻¹ | 250000 M⁻¹ s⁻¹ |
| IR-110 antibody (antibody, mouse IgG2b, V domains shown, mouse IgG2b) VH: DVQLVESGGGLVQPGGSRKLSCAASGFTFSSFGMHWVRQAPEKGLEWVAYISSGSSTIYYADTVKGRFTISRDNPKNTLFLQMTSLRSEDTAMYYCASYGNYGAYWGQGTLVTVSA VL: DVLMTQTPLSLPVSLGDQASISCRSSQSIVHSNGNTYLEWYLQKPGQSPKLLIYKVSNRFSGVPDRFSGSGSGTDFTLKISRVEAEDLGVYYCFQGSHVPPTFGGGTKLEIK | 177 nM | 0.0719 s⁻¹ | 407000 M⁻¹ s⁻¹ |
